The record followed here is PMC3427469.

Assay [1] concerns the target GST-WAVE2 (UniProt Q9Y6W5). Kind of assay: pull-down.
In assay [2] the target is FLAG-WAVE2 (UniProt Q9Y6W5). Description: co-IP.
Sequence of FLAG-WAVE2 (Q9Y6W5 whole entry): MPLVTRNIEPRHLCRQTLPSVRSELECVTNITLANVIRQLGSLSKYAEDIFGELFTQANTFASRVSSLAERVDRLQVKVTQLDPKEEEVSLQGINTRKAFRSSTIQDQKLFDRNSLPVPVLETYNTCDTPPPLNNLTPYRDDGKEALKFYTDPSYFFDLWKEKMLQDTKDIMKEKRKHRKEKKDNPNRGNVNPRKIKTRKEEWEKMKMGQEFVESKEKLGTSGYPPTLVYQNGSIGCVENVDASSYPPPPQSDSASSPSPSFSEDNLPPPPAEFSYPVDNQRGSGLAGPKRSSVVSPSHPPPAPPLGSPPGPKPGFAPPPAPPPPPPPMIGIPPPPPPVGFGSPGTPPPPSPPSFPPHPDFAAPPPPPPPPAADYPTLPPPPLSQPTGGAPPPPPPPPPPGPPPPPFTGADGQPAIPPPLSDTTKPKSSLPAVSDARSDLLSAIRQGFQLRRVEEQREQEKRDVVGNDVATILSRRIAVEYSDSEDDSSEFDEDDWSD

Sequence of GST-WAVE2 (Q9Y6W5 whole entry): as above

In the case of “Arp2/3 complex (purified) (from UniProt P61158 1-418)”, in assay [1], the KD in the presence of Exo70 is 210 nM, the Kd was 470 nM and the fold increase of Arp2/3 bound in the presence of Exo70 against BSA was determined as 3.5 fold.

Substance “Arp2/3 complex, endogenous in MDA-MB-231 cells (from UniProt P61158 1-418)” gave an Arp3 co-precipitated after Exo70 siRNA, percent of control siRNA-treated cells in assay [2] of 44%.

In general, Kd refers to the equilibrium constant for the complex coming apart. Read a low Kd as a tighter complex.
